Source: patent US20110269817

Molecular target: BMAL1 acetylated at Lys537 (ectopically expressed together with CLOCK), Q9WTL8
Sequence (Q9WTL8 other isoform, or with tags, fused parts or gaps): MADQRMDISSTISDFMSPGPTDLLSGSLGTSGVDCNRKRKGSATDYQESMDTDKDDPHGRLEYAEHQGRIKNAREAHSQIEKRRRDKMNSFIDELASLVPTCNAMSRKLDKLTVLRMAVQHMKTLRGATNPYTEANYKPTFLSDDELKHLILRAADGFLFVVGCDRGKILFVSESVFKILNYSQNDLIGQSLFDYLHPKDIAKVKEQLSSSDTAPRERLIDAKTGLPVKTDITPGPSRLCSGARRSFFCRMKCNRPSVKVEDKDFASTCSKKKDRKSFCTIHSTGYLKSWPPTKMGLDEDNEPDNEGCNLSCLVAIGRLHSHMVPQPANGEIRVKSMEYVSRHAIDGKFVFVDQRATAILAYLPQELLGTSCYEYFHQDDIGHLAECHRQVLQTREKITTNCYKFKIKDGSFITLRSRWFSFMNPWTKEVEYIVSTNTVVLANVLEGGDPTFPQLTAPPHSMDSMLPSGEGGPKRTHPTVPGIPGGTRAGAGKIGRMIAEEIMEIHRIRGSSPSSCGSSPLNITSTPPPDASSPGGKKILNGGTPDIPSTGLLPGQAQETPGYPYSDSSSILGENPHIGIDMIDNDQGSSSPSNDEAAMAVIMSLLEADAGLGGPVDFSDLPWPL

B1: Recombinant SIRT1 of the SIRT1 Fluorimetric Activity Assay/Drug Discovery Kit (AK-555; BIOMOL International) (protein)
chain: MADEAALALQPGGSPSAAGADREAASSPAGEPLRKRPRRDGPGLERSPGEPGGAAPEREVPAAARGCPGAAAAALWREAEAEAAAAGGEQEAQATAAAGEGDNGPGLQGPSREPPLADNLYDEDDDDEGEEEEEAAAAAIGYRDNLLFGDEIITNGFHSCESDEEDRASHASSSDWTPRPRIGPYTFVQQHLMIGTDPRTILKDLLPETIPPPELDDMTLWQIVINILSEPPKRKKRKDINTIEDAVKLLQECKKIIVLTGAGVSVSCGIPDFRSRDGIYARLAVDFPDLPDPQAMFDIEYFRKDPRPFFKFAKEIYPGQFQPSLCHKFIALSDKEGKLLRNYTQNIDTLEQVAGIQRIIQCHGSFATASCLICKYKVDCEAVRGDIFNQVVPRCPRCPADEPLAIMKPEIVFFGENLPEQFHRAMKYDKDEVDLLIVIGSSLKVRPVALIPSSIPHEVPQILINREPLPHLHFDVELLGDCDVIINELCHRLGGEYAKLCCNPVKLSEITEKPPRTQKELAYLSELPPTPLHVSEDSSSPERTSPPDSSVIVTLLDQAAKSNDDLDVSESKGCMEEKPQEVQTSRNVESIAEQMENPDLKNVGSSTGEKNERTSVAGTVRKCWPNRVAKEQISRRLDGNQYLFLPPNRYIFHGAEVYSDSEDDVLSSSSCGSNSDSGTCQSPSLEEPMEDESEIEEFYNGLEDEPDVPERAGGAGFGTDGDDQEAINEAISVKQEVTDMNYPSNKS
B1 was tested, and the “in vitro deacetylation assay (immunoprecipitated Ac-BMAL1 with recombinant SIRT1, 5 mM NAD+ or 10 mM NAM, 90 min at 37 C; Western with Ac-BMAL1 antibody)” value was “SIRT1 readily deacetylates BMAL1 in an in vitro deacetylation assay”.
